Legend:
[1] = target: T1, human OX40 on cells (CHO-hOX40, 293HEK-hOX40, Jurkat-hOX40, activated primary CD4+ T cells) (human, UniProt P43489 29-277); assay: cell-based or functional assay
T1 sequence (looked up): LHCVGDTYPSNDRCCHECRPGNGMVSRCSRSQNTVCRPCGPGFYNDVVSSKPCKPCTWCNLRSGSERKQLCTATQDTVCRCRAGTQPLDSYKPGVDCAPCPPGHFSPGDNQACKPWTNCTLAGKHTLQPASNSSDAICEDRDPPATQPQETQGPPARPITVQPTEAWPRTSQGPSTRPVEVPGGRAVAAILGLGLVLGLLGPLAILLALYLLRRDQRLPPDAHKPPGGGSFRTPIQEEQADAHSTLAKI

[2] = target: T2, cyno OX40_Fc (Acro Biosystems) (cyno); assay: BLI, IgG1 on tip, cyno OX40-Fc 100 nM, avid
T2 construct: Bought

[3] = target: T1, human OX40 on cells (CHO-hOX40, …); assay: flow cytometry, MFI on CHO-hOX40 over wild-type CHO
[4] = target: T3, human OX40_Fc (R&D Systems) (human, UniProt P43489 29-216); assay: BLI, IgG1 on tip, hOX40-Fc 50 nM, avid
T3 construct: Bought

[5] = target: T4, mouse OX40Fc (Acro Biosystems) (mouse, UniProt P47741 20-211, limits assumed); assay: BLI, IgG1 on tip, mouse OX40-Fc 100 nM, avid
T4 construct: Bought; not shown: Fc
T4 sequence (looked up): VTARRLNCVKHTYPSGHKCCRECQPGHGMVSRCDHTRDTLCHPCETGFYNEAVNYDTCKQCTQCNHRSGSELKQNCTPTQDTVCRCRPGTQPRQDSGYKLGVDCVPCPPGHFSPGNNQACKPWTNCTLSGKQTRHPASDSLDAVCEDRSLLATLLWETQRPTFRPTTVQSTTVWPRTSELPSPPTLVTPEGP

[6] = target: T1, human OX40 on cells (CHO-hOX40, …); assay: flow cytometry, CHO-hOX40, 100 nM
[7] = target: T1, human OX40 on cells (CHO-hOX40, …); assay: flow cytometry, CHO-hOX40, 50 nM
[8] = target: T1, human OX40 on cells (CHO-hOX40, …); assay: flow cytometry, CHO-hOX40
[9] = target: T1, human OX40 on cells (CHO-hOX40, …); assay: flow cytometry, CHO-hOX40, 0.048828125 nM
[10] = target: T1, human OX40 on cells (CHO-hOX40, …); assay: flow cytometry, CHO-hOX40, 3.125 nM
[11] = target: T1, human OX40 on cells (CHO-hOX40, …); assay: flow cytometry, CHO-hOX40, 0.78125 nM
[12] = target: T1, human OX40 on cells (CHO-hOX40, …); assay: flow cytometry, CHO-hOX40, 0.390625 nM
[13] = target: T1, human OX40 on cells (CHO-hOX40, …); assay: flow cytometry, CHO-hOX40, 100 nM; remark: listed apart in the source
[14] = target: T1, human OX40 on cells (CHO-hOX40, …); assay: flow cytometry, CHO-hOX40, 12.5 nM
[15] = target: T1, human OX40 on cells (CHO-hOX40, …); assay: flow cytometry, CHO-hOX40, 0.024414063 nM
[16] = target: T1, human OX40 on cells (CHO-hOX40, …); assay: flow cytometry, CHO-hOX40, 6.25 nM
[17] = target: T1, human OX40 on cells (CHO-hOX40, …); assay: flow cytometry, CHO-hOX40, 0.09765625 nM
[18] = target: T1, human OX40 on cells (CHO-hOX40, …); assay: flow cytometry, CHO-hOX40, 25 nM
[19] = target: T1, human OX40 on cells (CHO-hOX40, …); assay: flow cytometry, CHO-hOX40, 0.1953125 nM
[20] = target: T1, human OX40 on cells (CHO-hOX40, …); assay: flow cytometry, CHO-hOX40, 1.5625 nM
[21] = target: T1, human OX40 on cells (CHO-hOX40, …); assay: flow cytometry, CHO-hOX40, 200 nM

B1: ADI-23515, IgG1 format (antibody)
heavy: not shown
light: EIVLTQSPGTLSLSPGERATLSCRASQSVSSSYLAWYQQKPGQAPRLLIYGASSRATGIPDRFSGSGSGTDFTLTISRLEPEDFAVYYCQQSERSPFTFGGGTKVEIKRTVAAPSVFIFPPSDEQLKSGTASVVCLLNNFYPREAKVQWKVDNALQSGNSQESVTEQDSKDSTYSLSSTLTLSKADYEKHKVYACEVTHQGLSSPVTKSFNRGEC
notes: Made in yeast or CHO cells; also called ADI-23515-g1
EC50, NFkB-luciferase reporter in Jurkat-hOX40 mixed with Raji cells [1]: 0.174 nM
Kd [2]: 1.09 nM
Fold difference [3]: 1550 fold
Kd [4]: 0.273 nM
Kd [5]: 8.98 nM
CHO-OX40 binding intensity (MFI) [6]: 181000 MFI

B2: Hu106-222 (IgG2) (antibody, V domains shown)
VH: QVQLVQSGSELKKPGASVKVSCKASGYTFTDYSMHWVRQAPGQGLKWMGWINTETGEPTYADDFKGRFVFSLDTSVSTAYLQISSLKAEDTAVYYCANPYYDYVSYYAMDYWGQGTLVTVSS
VL: DIQMTQSPSSLSASVGDRVTITCKASQDVSTAVAWYQQKPGKAPKLLIYSASYLYTGVPSRFSGSGSGTDFTFTISSLQPEDIATYYCQQHYSTPRTFGQGTKLEIK
MFI [7]: 1.59e+06 MFI
EC50 [8]: 8.37 nM
MFI [9]: 15400 MFI
MFI [10]: 660000 MFI
MFI [11]: 188000 MFI
MFI [12]: 101000 MFI
MFI [13]: 2.39e+06 MFI
MFI [14]: 1.52e+06 MFI
MFI [15]: 14600 MFI
MFI [16]: 1.06e+06 MFI
MFI [17]: 28200 MFI
MFI [18]: 2.16e+06 MFI
MFI [19]: 49500 MFI
MFI [20]: 334000 MFI
MFI [21]: 2.55e+06 MFI

Source: patent US20200140562A1 (Innovent, published 2020)
